Target: T1, PD-1-mFc (人PD-1胞外区加Fc纯化标签) (human, UniProt Q15116 25-170)
T1 construct: extracellular domain;domain: Fc; also called PD-1抗原; PD-1蛋白; not shown: mFc, Fc purification tag (mouse Fc)
Test: competition ELISA, PD-1-mFc coated, competitor PDL-1-hFc

T1 sequence (Q15116 25-170): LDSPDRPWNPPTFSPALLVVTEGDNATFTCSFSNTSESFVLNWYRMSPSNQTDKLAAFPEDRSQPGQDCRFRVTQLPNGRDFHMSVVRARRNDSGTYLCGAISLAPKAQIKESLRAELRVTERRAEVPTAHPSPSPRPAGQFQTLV

binding result: binds
B1: 双特异性抗体Vs3P4 (dsFv-VEGF-linker-PD1-H chain结构) (bispecific antibody, human IgG4 S228P, kappa)
heavy: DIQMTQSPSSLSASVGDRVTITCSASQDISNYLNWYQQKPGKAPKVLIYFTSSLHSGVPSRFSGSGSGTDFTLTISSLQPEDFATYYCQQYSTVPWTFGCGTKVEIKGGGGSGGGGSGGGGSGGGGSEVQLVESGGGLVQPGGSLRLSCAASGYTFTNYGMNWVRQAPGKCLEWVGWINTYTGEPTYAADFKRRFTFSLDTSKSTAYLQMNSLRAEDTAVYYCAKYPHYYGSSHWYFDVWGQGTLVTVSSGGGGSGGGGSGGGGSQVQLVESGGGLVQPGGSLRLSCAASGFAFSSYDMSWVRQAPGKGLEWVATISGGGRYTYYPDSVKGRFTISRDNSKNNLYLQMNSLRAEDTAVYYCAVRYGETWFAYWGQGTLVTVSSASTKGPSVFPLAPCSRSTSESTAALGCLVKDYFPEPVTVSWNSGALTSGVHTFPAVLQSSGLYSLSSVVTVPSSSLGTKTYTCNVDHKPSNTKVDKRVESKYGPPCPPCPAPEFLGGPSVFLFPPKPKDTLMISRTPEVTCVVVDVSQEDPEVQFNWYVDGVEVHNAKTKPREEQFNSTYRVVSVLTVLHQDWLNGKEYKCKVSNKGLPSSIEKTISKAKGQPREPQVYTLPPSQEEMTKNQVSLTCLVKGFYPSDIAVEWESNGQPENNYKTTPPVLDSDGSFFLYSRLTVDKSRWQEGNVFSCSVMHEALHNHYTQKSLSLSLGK
light: DIQMTQSPSSLSASVGDRVTITCRASQDINTYLAWFQQKPGKAPKSLIYRANRLVSGVPSRFSGSGSGTDFTLTISSLQPEDMATYYCLQYDEFPLTFGAGTKLELKRTVAAPSVFIFPPSDEQLKSGTASVVCLLNNFYPREAKVQWKVDNALQSGNSQESVTEQDSKDSTYSLSSTLTLSKADYEKHKVYACEVTHQGLSSPVTKSFNRGEC
notes: Expressed in 293F cells; also called 抗VEGF-抗PD1双特异性抗体
